# Test results published in article PMC3830444.
# pIC50: −log10 of the molar value.
# Tests used:
# activated protein C = activated protein C (UniProt P04070)
# human α-thrombin (human) [1] = biological target: human α-thrombin (human) (UniProt P00734)
# human α-thrombin (human) [2] = biological target: human α-thrombin (human) (UniProt P00734); test: ELISA
# human α-thrombin (human) [3] = biological target: human α-thrombin (human) (UniProt P00734); remark: listed apart in the source
# γT-thrombin = γT-thrombin (UniProt P00734)
# [4] = biological target: FPR-chloromethyl ketone-thrombin (active site-inhibited α-thrombin) (human) (UniProt P00734); test: ELISA; HCII 1-75 immobilised on microtiter plates; α-thrombin or FPR-ck-thrombin incubated with or without competitor peptides or proteins; bound thrombin detected after washes with a horseradish peroxidase-conjugated sheep anti-human antibody (A490); one-site binding fit, IC50 = competitor concentration that reduces binding by 50%
# human α-thrombin (human) [5] = biological target: human α-thrombin (human) (UniProt P00734); test: as above
# activated protein C, sequence (P04070 whole entry, looked up): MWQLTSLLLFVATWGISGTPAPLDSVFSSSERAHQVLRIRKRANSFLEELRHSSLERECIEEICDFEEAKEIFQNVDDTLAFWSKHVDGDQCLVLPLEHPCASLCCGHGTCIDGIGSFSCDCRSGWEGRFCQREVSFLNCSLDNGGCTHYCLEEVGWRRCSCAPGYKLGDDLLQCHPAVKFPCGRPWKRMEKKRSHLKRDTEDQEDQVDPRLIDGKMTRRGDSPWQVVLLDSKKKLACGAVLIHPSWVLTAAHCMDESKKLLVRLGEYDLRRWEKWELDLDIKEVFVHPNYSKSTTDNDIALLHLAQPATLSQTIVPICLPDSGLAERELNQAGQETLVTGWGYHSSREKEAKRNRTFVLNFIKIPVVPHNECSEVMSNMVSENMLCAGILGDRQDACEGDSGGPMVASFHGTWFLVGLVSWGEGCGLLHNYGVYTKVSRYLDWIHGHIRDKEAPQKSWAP
Substance,second order rate constant of inhibition (k2) of APC (activated protein C),concentration required to double the Thrombin Clotting Time (TCT) of diluted citrated human plasma (human α-thrombin (human) [1]),second order rate constant of inhibition (k2) of α-thrombin (human α-thrombin (human) [3]),second order rate constant of inhibition (k2) of γT-thrombin (γT-thrombin),pIC50 [4],other results
HV3API M358R (HV3 residues 54-66 fused through G6 to the N-terminus of API M358R) (from UniProt P01009 25-418),31700 M⁻¹ s⁻¹,,,,,
HV3_(54-66) synthetic peptide,,0.45 µM,,,,pIC50 (human α-thrombin (human) [2]): 6.05
API M358R (alpha-1 proteinase inhibitor with the substitution of Met358 by Arg) (from UniProt P01009 25-418) (natural protein),28300 M⁻¹ s⁻¹,,367000 M⁻¹ s⁻¹,98300 M⁻¹ s⁻¹,,
HAPI RCL5 (HAPI M358R with additional F352A/L353V/E354V/A355I/I356A/I460L substitutions) (from UniProt P01009 25-418),,,,,4.77,
HAPI M358R (residues 1-75 of heparin cofactor II fused to API M358R) (from UniProt P01009 25-418),28300 M⁻¹ s⁻¹,,3.1e+06 M⁻¹ s⁻¹,567000 M⁻¹ s⁻¹,,
HCII 1-75 (recombinant protein of 84 amino acids: residues 1-75 of heparin cofactor II with an N-terminal nonapeptide tag) (domain or fragment),,12 µM,,,5.05,pIC50 (human α-thrombin (human) [5]): 5.10
